Experimental findings from patent publication EP0488317A2 are described below.

The target of this test is Bovine thrombin (bovine) (UniProt P00735). Put plainly: cell-based or functional assay.

Take r-UTM (from UniProt P07204 19-486): the Coagulation time, substance 17 nM, bovine fibrinogen 1 mg/ml, bovine thrombin 18 nM; control 28.1 sec was determined as 29.6 s; the IC50 of inhibition of coagulation of bovine fibrinogen (1 mg/ml) by bovine thrombin (18 nM) turned out to be 80 nM; the clotting time, human fibrinogen 2.5 mg/ml, bovine thrombin 0.5 U/ml, ATIII (+) (human antithrombin III 250 ug/ml); control 49.5 sec was 80.8 s; the clotting time, human fibrinogen 2.5 mg/ml, bovine thrombin 0.5 U/ml, ATIII (-); control 43.3 sec came out at 61.8 s.
